Assay results as given in US20070224189A1.

Target: extracellular region of human V158 FcγRIIIa fused with glutathione S-Transferase (GST) (human) (UniProt P08637)
Assay: AlphaScreen competition

Chain of extracellular region of human V158 FcγRIIIa fused with glutathione S-Transferase (GST) (human) (P08637 17-208 F176V): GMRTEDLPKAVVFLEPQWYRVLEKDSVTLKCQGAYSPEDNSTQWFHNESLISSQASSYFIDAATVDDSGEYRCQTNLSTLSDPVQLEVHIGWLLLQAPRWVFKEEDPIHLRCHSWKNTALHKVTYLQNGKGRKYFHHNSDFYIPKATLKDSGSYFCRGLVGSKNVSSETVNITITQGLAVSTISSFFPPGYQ

In order of falling FcγRIIIa Fold:
1. F241E/F243Q/V262T/V264E alemtuzumab (antibody)  0.07 fold vs WT
2. F241W/F243W alemtuzumab (antibody)  0.07 fold vs WT
3. L234I/L235D trastuzumab (antibody)  0.07 fold vs WT
4. F241L/V262I alemtuzumab (antibody)  0.06 fold vs WT
5. S239E/N297D/I332E alemtuzumab (antibody)  0.06 fold vs WT
6. A327L alemtuzumab (antibody)  0.05 fold vs WT
7. F241E/F243R/V262E/V264R alemtuzumab (antibody)  0.05 fold vs WT
8. F241E/F243Y/V262T/V264R alemtuzumab (antibody)  0.05 fold vs WT
9. S239E/D265Q alemtuzumab (antibody)  0.05 fold vs WT
10. V264E/N297D/I332E alemtuzumab (antibody)  0.05 fold vs WT
11. S239D/D265H/N297D/I332E alemtuzumab (antibody)  0.04 fold vs WT
12. Y296N/N297D/I332E alemtuzumab (antibody)  0.04 fold vs WT
13. S239D/D265V/N297D/I332E alemtuzumab (antibody)  0.03 fold vs WT
14. S267Q/A327S alemtuzumab (antibody)  0.03 fold vs WT
15. T299A alemtuzumab (antibody)  0.03 fold vs WT
16. F241R/F243Q/V262T/V264R alemtuzumab (antibody)  0.02 fold vs WT
